Experimental data taken from patent US20240192215A1 (E AND S HEALTHCARE, published 2024).
Blank lines part the entries; values can stand above or below the binder they belong to.

Legend:
Peptide_004 = molecular target: T1, Peptide_004 (human); test: peptide microarray
T1 construct: 15-mer on microarray; not native form, recombinant insert region
T1 peptide: AADVHSQHHHHHHHH
Experimental: (§1) 5, 1, 0.2, 0.04, 0.008 and 0.0016 μg/mL serial dilutions were incubated on a single multi-well microarray slide at 30° C. for 1 hour. The slide includes 21 individual mini-arrays (one mini-array per sample dilution).
(§2) DyLight 650 was used as a label. False-positive binding to a peptide was evaluated by performing one additional control incubation in which only a secondary antibody was applied on the same microarray slide. Before performing each step, the microarrays were washed with a washing buffer.
(§3) MMC2 is the same as the average value of all three cases on a microarray except when the coefficient of variation (CV), which is the standard deviation divided by the average value, is larger than 0.5. In this case, the average of the two closest values (MC2) is assigned to MMC2. The thick black line in the heatmap indicates the culture of a control only using a secondary anti-mouse IgG antibody. The culture of individual antibody samples is indicated by a thin blue line. […] However, since Peptide_004 and Peptide_005 are not native forms, these peptides were excluded from an epitope candidate group.

Peptide_005 = molecular target: T2, Peptide_005 (human); test: peptide microarray
T2 construct: 15-mer on microarray; not native form, recombinant insert region
T2 peptide: ADVHSQHHHHHHHHV
Experimental: as §1, §2, §3

Peptide_104 = molecular target: T3, Peptide_104; test: peptide microarray, anti-mouse IgG DyLight 650, MMC2 heatmap (Example 17)
T3 peptide: GEFSGANKEKLEATI
Experimental: as §1, §2
(§4) To visualize the obtained results and compare binding regions across individual cultures, as shown in FIGS. 21A to 21D, heatmap diagrams were calculated. In FIGS. 21A to 21D, the fluorescence intensity is expressed in a color-coded manner, white indicates no binding, and red indicates strong binding. For all evaluations, the MMC2-value of the average pixel fluorescence for each peptide was calculated.

Peptide_028 = molecular target: T4, Peptide_028; test: as above
T4 peptide: FQEALDAAGDKLVVV
Experimental: as §1, §2, §4

Peptide_106 = molecular target: T5, Peptide_106; test: as above
T5 construct: also called FSGANKEKLEATINE
T5 peptide: FSGANKEKLEATINE
Experimental: as §1, §2, §4

Peptide_035 = molecular target: T6, Peptide_035; test: as above
T6 peptide: AGDKLVVVDFSATWC
Experimental: as §1, §2, §4

Peptide_101 = molecular target: T7, Peptide_101; test: as above
T7 peptide: QKVGEFSGANKEKLE
Experimental: as §1, §2, §4

Peptide_105 = molecular target: T8, Peptide_105; test: as above
T8 construct: also called EFSGANKEKLEATIN
T8 peptide: EFSGANKEKLEATIN
Experimental: as §1, §2, §4

Peptide_031 = molecular target: T9, Peptide_031; test: as above
T9 peptide: ALDAAGDKLVVVDFS
Experimental: as §1, §2, §4

Peptide_010 = molecular target: T10, Peptide_010; test: as above
T10 peptide: QHHHHHHHHVKQIES
Experimental: as §1, §2, §4

Peptide_040 = molecular target: T11, Peptide_040; test: as above
T11 peptide: VVVDFSATWCGPCKM
Experimental: as §1, §2, §4

Peptide_006 = molecular target: T12, Peptide_006; test: as above
T12 peptide: DVHSQHHHHHHHHVK
Experimental: as §1, §2, §4

Peptide_034 = molecular target: T13, Peptide_034; test: as above
T13 peptide: AAGDKLVVVDFSATW
Experimental: as §1, §2, §4

Peptide_083 = molecular target: T14, Peptide_083; test: as above
T14 peptide: ASECEVKCMPTFQFF
Experimental: as §1, §2, §4

Peptide_089 = molecular target: T15, Peptide_089; test: as above
T15 peptide: KCMPTFQFFKKGQKV
Experimental: as §1, §2, §4

Peptide_016 = molecular target: T16, Peptide_016; test: as above
T16 peptide: HHHVKQIESKTAFQE
Experimental: as §1, §2, §4

Peptide_070 = molecular target: T17, Peptide_070; test: as above
T17 peptide: IFLEVDVDDCQDVAS
Experimental: as §1, §2, §4

Peptide_002 = molecular target: T18, Peptide_002; test: as above
T18 peptide: ATAADVHSQHHHHHH
Experimental: as §1, §2, §4

Peptide_033 = molecular target: T19, Peptide_033; test: as above
T19 peptide: DAAGDKLVVVDFSAT
Experimental: as §1, §2, §4

Peptide_058 = molecular target: T20, Peptide_058; test: as above
T20 peptide: FFHSLSEKYSNVIFL
Experimental: as §1, §2, §4

Peptide_075 = molecular target: T21, Peptide_075; test: as above
T21 peptide: DVDDCQDVASECEVK
Experimental: as §1, §2, §4

Peptide_060 = molecular target: T22, Peptide_060; test: as above
T22 peptide: HSLSEKYSNVIFLEV
Experimental: as §1, §2, §4

Peptide_008 = molecular target: T23, Peptide_008; test: as above
T23 peptide: HSQHHHHHHHHVKQI
Experimental: as §1, §2, §4

Peptide_029 = molecular target: T24, Peptide_029; test: as above
T24 peptide: QEALDAAGDKLVVVD
Experimental: as §1, §2, §4

Peptide_012 = molecular target: T25, Peptide_012 (human); test: peptide microarray
T25 construct: 15-mer on microarray; not native form, includes recombinant insert region
T25 peptide: HHHHHHHVKQIESKT
Experimental: as §1, §2, §3

Peptide_018 = molecular target: T26, Peptide_018 (human); test: peptide microarray
T26 construct: 15-mer on microarray; not native form, includes recombinant insert region; also called HVKQIESKTAFQEAL
T26 peptide: HVKQIESKTAFQEAL
Experimental: as §1, §2, §3

signal, fold of the average background level (Peptide_004): ~8 fold | signal, fold of the average background level (Peptide_005): ~8 fold
B1: monoclonal antibody B266-1 (antibody, human IgG1)
light: QIVLTQSPAIMSASPGEKVTMTCSASSRISYMYWYQQKPGTSPKRWIYDTSKLASGVPARFSGSGSGTSYSLTISTMEAEDAATYYCHQRSSYPTFGAGTKLELKSVAAPSVFIFPPSDEQLKSGTASVVCLLNNFYPREAKVQWKVDNALQSGNSQESVTEQDSKDSTYSLSSTLTLSKADYEKHKVYACEVTHQGLSSPVTKSFNRGEC
heavy: not shown
notes: B266 with the Fc part changed to human IgG1; also called B266-1 (Trx1-hIgG1); B266-1 (hTrx1-hIgG1)

binding result (Peptide_104): no binding (tested: 5 ug/mL) | binding result (Peptide_028): no binding (tested: 5 ug/mL) | binding result (Peptide_106): no binding (tested: 5 ug/mL) | binding result (Peptide_035): no binding (tested: 5 ug/mL) | binding result (Peptide_101): no binding (tested: 5 ug/mL) | binding result (Peptide_105): no binding (tested: 5 ug/mL) | binding result (Peptide_031): no binding (tested: 5 ug/mL) | binding result (Peptide_010): no binding (tested: 5 ug/mL) | binding result (Peptide_040): no binding (tested: 5 ug/mL) | binding result (Peptide_006): binds | binding result (Peptide_034): no binding (tested: 5 ug/mL) | binding result (Peptide_083): no binding (tested: 5 ug/mL) | binding result (Peptide_089): no binding (tested: 5 ug/mL) | binding result (Peptide_016): binds | binding result (Peptide_070): no binding (tested: 5 ug/mL) | binding result (Peptide_002): no binding (tested: 5 ug/mL) | binding result (Peptide_033): no binding (tested: 5 ug/mL) | binding result (Peptide_058): no binding (tested: 5 ug/mL) | binding result (Peptide_075): no binding (tested: 5 ug/mL) | binding result (Peptide_060): binds | binding result (Peptide_008): no binding (tested: 5 ug/mL) | binding result (Peptide_029): no binding (tested: 5 ug/mL) | signal, fold of the average background level (Peptide_012): ~7 fold | signal, fold of the average background level (Peptide_018): ~7 fold
B2: monoclonal antibody B264 (antibody, mouse IgG1, kappa, V domains shown)
VH: QVQLQQSGAELARPGASVKMSCKASGYTFTSYTMHWVKQRPGQGLEWIGYINPTSDYTNYNQKFKDKATLTADKSSSTAYMQLSSLTSEDSAVYFCASEGGFLYYFDYWGQGTTLTVSS
VL: DVLMTQTPLSLPVSLGDQASISCRSSQSIVHSNGNTYLEWYLQKPGQSPKLLIYKVSNRFSGVPDRFSGSGSGTDFTLKISRVEAEDLGVYYCFQGSHVPYTFGGGTKLEIKR
notes: also called AB264; B264 (Trx1-mIgG1)
